Measurements as given in the supplement of paper PMC9170038.

System: MS2 coat protein
Test: apparent KD of MS2 coat protein; designed switch direction (-1 OFF switch, 1 ON switch): 1; higher = weaker reporter binding
Outline: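 On Illumina chips, designed RNA switches with common flanks were made by stalled E. coli RNA polymerase. Titrations with SNAP-549-labelled MS2 coat protein, doubling from 0.7 or 1.5 nM to 3 µM, were done with no input, with 200 uM small-molecule ligand, or with an oligonucleotide input. Apparent KD is the median per design over clusters, from curve fits of normalised cluster fluorescence.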

[1] = input ligand: microRNA oligo, concentration not stated
[2] = Eterna round: R95, input ligand: FMN 200 uM
[3] = Eterna round: R95, input ligand: microRNA oligo, concentration not stated
[4] = Eterna round: R95, input ligand: none

Row | Sequence | apparent KD of MS2 coat protein [1] | apparent KD of MS2 coat protein [2] | apparent KD of MS2 coat protein [3] | apparent KD of MS2 coat protein [4] | apparent KD of MS2 coat protein (input ligand: FMN 200 uM) | apparent KD of MS2 coat protein (input ligand: none)
1 | GGAGCCGGCCUAGGAUAUUUCAUAAUAUUACAUGAGGAUCACCCAUGUAGGCCAGAAGGCCUUGGGAAGAAGGAGGUCGGCUCC [Loop Effect - U26,U28,U29] (Eterna round: R96, puzzle: Same State NG 2) | 30.7 nM | – | – | – | – | –
2 | GGUCCAGCCUGAGCUGGACAAAAGCAUGUACAUGAGGAUCACCCAUGUUCAUGUACAAGCUUUUUGCUCGUCUUAGU [salish99_208a_r3_069] (puzzle: Sensor for hsa-mir-208a) | – | 536 nM | 16.3 nM | 730 nM | – | –
3 | GCGCAGCUGGGUGAGGAUAUCGGUGGUAAAACAUGAGGAUCACCCAUGUCCGGAGCUCGGACUUCCGAGAAGGCACCCGGCUGCA [Erisais] (puzzle: Same State 2) | – | – | 27.2 nM | – | – | –
4 | GGUCCAGCCUGAGCUGGACUACAGCAUGUACAUGAGGAUCACCCAUGUCAUGUACAAGUAUGUUGUUUGUCUUAAAA [Sensorship 7 - Jieux - Sensor for hsa-mir-208a] (puzzle: Sensor for hsa-mir-208a) | – | 80.8 nM | 37.5 nM | 108 nM | – | –
5 | GCCAUCCAAUGAGGAUAUGGCACCGUUUCGGUGCCAGAAGGCAUGUCAAUUGACAUGAGGAUCACCCAUGUAUUAUGGAUGGCA [JL Fiskers NG1ss - 33 mod 2] (Eterna round: R96, puzzle: Same State NG 1) | 739 nM | – | – | – | 101 nM | 1390 nM
6 | AAGAAAGACGCAGGAUAUCAGCGCAAAACACGCUGAGAAGGGUGAGACAUGAGGAUCACCCAUGUAACACGGCAAAACGCCGUG [Atinanor] (Eterna round: R96, puzzle: Same State NG 1) | 122 nM | – | – | – | 2190 nM | 1310 nM
7 | AGUCUACGGUGACGUAGACAGUGGUGCGUACAUGAGGAUCACCCAUGUCAUGUGAGAGUUACUUGUUCGUCUUGAGC [SENSOR #4] (puzzle: Sensor for hsa-mir-208a) | – | 20.7 nM | 21.7 nM | 22.6 nM | – | –
8 | UGGUACAUGGGAGGAUAUCUCAUGGAGACAUGAGGAUCACCCAUGUAGUUGGGCCGGAAACGGUGAGAGAAGGCCCAUGUACCU [JL SSNG1 3.71] (Eterna round: R96, puzzle: Same State NG 2) | 338 nM | – | – | – | 377 nM | 473 nM
9 | AUUAAACAUGAGGAUCACCCAUGUCAACAAAGUCGAGGAUAUGGGCUAAUAAAAUAAGAACCAGAAGGCGAAUAAU [salish99_ss1_r3_062] (puzzle: Same State 1) | – | 26.8 nM | 185 nM | 211 nM | – | –
10 | AGCUAGUACCGAGGAUAUACAUACAUGAGGAUCACCCAUGUAUACAUGAAUUUAUGAGACUACAUGUAGAAGGCGGUACUAGCA [JL SSNG2 1.21] (Eterna round: R96, puzzle: Same State NG 2) | 40.1 nM | – | – | – | – | –
11 | AGCGGAUAACAGUAGGAUAUGGCCAACGCCACAUGAGGAUCACCCAUGUCGUACCGGCACCUGGACUAGAAGGACUGCCUCCCGC [Ariscedi] (puzzle: Same State 2) | – | – | 22.8 nM | – | – | –
12 | UCUUGGUUUUUGCUCGUUUUUUGUGUUGAACAUGAGGAUCACCCAUGUAUUGUACGGUCCAAUUUAAUAAUAAUCCG [JMF 64] (puzzle: Sensor for hsa-mir-208a) | – | 28.8 nM | 21.9 nM | 30.6 nM | – | –
13 | AUAUAACAUGAGGAUCACCCAUGUCUCUAAAGUUGAGGAUAUGGGCAGGUUAUAUCCGAACCAGAAGGCGAAUUAU [SS1 Teenbexe 7] (puzzle: Same State 1) | – | 74.5 nM | 46.3 nM | 102 nM | – | –
14 | CUGAGCAAUCAAGGAUAUCACGUCGAAUAGACGUGAGAAGGUGAUCAUAACAUGAGGAUCACCCAUGUAUUACAUGAAGCUCAG [SSNG1/1-A1] (Eterna round: R96, puzzle: Same State NG 1) | 399 nM | – | – | – | 512 nM | 1280 nM
15 | GUUACAUGAGGAUCACCCAUGUAUGUGUGGGAGUAAGUGUCUUAGGAUAUCUAUGAUUUAAUCUAAGAGAAGGAAGAUUGUUGU [JMF's solution 82] (Eterna round: R96, puzzle: Same State NG 3) | 76.8 nM | – | – | – | 114 nM | 95.3 nM
16 | UUAUAACAUGAGGAUCACCCAUGUCAUCUAAGUCGAGGAUAUGGGAAUUAAUUAAUUAAACCAGAAGGCGAAAAUU [Mat - Same State 1 - D91] (puzzle: Same State 1) | – | 160 nM | 149 nM | 783 nM | – | –

Row | Sequence | apparent KD of MS2 coat protein [1] | apparent KD of MS2 coat protein [2] | apparent KD of MS2 coat protein [3] | apparent KD of MS2 coat protein [4] | apparent KD of MS2 coat protein (input ligand: FMN 200 uM) | apparent KD of MS2 coat protein (input ligand: none)
17 | GGAUGAUUGACAGGAUAUCAUUUGUAAAUUCGAUGAGAAGGGUCGAUUACUUACACGACGUGUUACAUGAGGAUCACCCAUGUU [SameState NG1 #5] (Eterna round: R96, puzzle: Same State NG 1) | 116 nM | – | – | – | 53.7 nM | 148 nM
18 | GCGAGCGUACUUGCAACAUGAGGAUCACCCAUGUUAACUGGACAGGAUAUGGUACCGUUUCGGUACCAGAAGGGUUCCUCAAUG [JL SSNG3 3.62] (Eterna round: R96, puzzle: Same State NG 3) | 116 nM | – | – | – | 295 nM | 214 nM
19 | GAAAAACAUGAGGAUCACCCAUGUGAGAAUAUGGGAGGAUAUACGAGGACGAGAGUCAAGGUAGAAGGCCUAAAAG [Garnet 75] (Eterna round: R96, puzzle: Same State 1) | 255 nM | – | – | – | 45.3 nM | 314 nM
20 | ACAUGAGAUCGAGGAUAUUUUGUACCUACAUGUGACAUGAGGAUCACCCAUGUGGUAAGUAUGAGAAAGAAGGCGAAGAUAUGU [Equivalence 16 - Jieux - Same State NG 2] (Eterna round: R96, puzzle: Same State NG 2) | 29.3 nM | – | – | – | – | –
21 | AUUUAACAAGCUUUUUGCUCGUCUUAUAAACAUGAGGAUCACCCAUGUAAUAGCGUGAGAGUAAUUAAUUAAAUAAU [JMF 90] (puzzle: Sensor for hsa-mir-208a) | – | 14.6 nM | 46.9 nM | 13.3 nM | – | –
22 | AUAAAACAUGAGGAUCACCCAUGUCAACAAAGUCGAGGAUAUGGGCAAAUAAAAUAAGAACCAGAAGGCUAAUAAU [salish99_ss1_r3_052] (puzzle: Same State 1) | – | 246 nM | 378 nM | 375 nM | – | –
23 | GUAGAUAUAACGCAGGAUAUUCAAUGAGAGACAUGAGGAUCACCCAUGUGAGAGUGAGAUGAUAGGAAGAAGGGUGAGAGAGAUG [Altered State 2-8 - Jieux - Same State 2] (puzzle: Same State 2) | – | 107 nM | 124 nM | 122 nM | – | –
24 | GUUACAUGAGGAUCACCCAUGUAUGUGUGGGAGUAAGUGUCUUAGGAUAUCUAUUAUUUAAAUUAAGAGAAGGAAGAUUGUUGU [JMF's solution 7] (Eterna round: R96, puzzle: Same State NG 3) | 93 nM | – | – | – | – | –
25 | UGUUGUAUUACAGGAUAUCUAUUAUUUUUAGUUAGAGAAGGGUAUUCACAUGAGGAUCACCCAUGUAUAUACGAGGAAGUUGUG [JMF's solution 26] (Eterna round: R96, puzzle: Same State NG 1) | 35.7 nM | – | – | – | – | –
26 | UCGGGCGUACUUGCUGACAUGAGGAUCACCCAUGUGUUUGGGAAGGAUAUGGUUCCGUUUCGGUUCCAGAAGGUCCUGGGUGCU [salish99_SSNG3_r04_314] (Eterna round: R96, puzzle: Same State NG 3) | 254 nM | – | – | – | 337 nM | 246 nM
27 | CAGCGCUGUCGAGAGGAUAUGCGGUGAUGGACAUGAGGAUCACCCAUGUUAGCGACAGCAUCACGGCAGAAGGCUCUACCGCUGG [Soteed Omei mod 42] (puzzle: Same State 2) | – | 12.6 nM | 9.78 nM | 9.61 nM | – | –
28 | GGUGCAAUUAACGCCUACAUGAGGAUCACCCAUGUAUGUAGGCAGGAUAUCGUUUGCUUUGCAAACGAGAAGGGCUGUAGUACC [JL SSNG3 1.14] (Eterna round: R96, puzzle: Same State NG 3) | 89.3 nM | – | – | – | 35.6 nM | 84.5 nM
29 | UGUUGUAUUACAGGAUAUCUAUUAUUUUAAUUUAGAGAAGGGUAUUCACAUGAGGAUCACCCAUGUAUAUACGAGGAAGUUGUG [JMF's solution 21] (Eterna round: R96, puzzle: Same State NG 1) | 38.4 nM | – | – | – | – | –
30 | CAAUAAAACACAGGAUAUACAGCCAGCCAGGCUGUAGAAGGGUGAGACAUGAGGAUCACCCAUGUACAAGUCGUAGGACUUGGG [Edlaticeen] (Eterna round: R96, puzzle: Same State NG 1) | 47.7 nM | – | – | – | 1030 nM | 163 nM
31 | CCGGUUAAUGGAGGAUAUGGAGCCUUAUUGGCUCCAGAAGGCUAACAUGAGGAUCACCCAUGUUUACCGGCGGUCAAUAGACCG [Eli NG1ss - 62] (Eterna round: R96, puzzle: Same State NG 1) | 11 nM | – | – | – | 11 nM | 18.8 nM
32 | GCUCGAUGAGCUGUCUACAUGAGGAUCACCCAUGUAGAUGGGCAGGAUAUUUACGUGCUUUGUGUAGAGAAGGGCCCAUCGAGC [SameState NG3 #77] (Eterna round: R96, puzzle: Same State NG 3) | 144 nM | – | – | – | 35 nM | 267 nM
